Results: patent publication US11911450B2, “Method for managing pain” (UNIVERSITY OF MIAMI, priority 2017, dated 2024)

B1: Car10: carbonic anhydrase 10, rodent ortholog, overexpressed (V5-tagged) protein (protein)
chain: MEIVWEVLFLLQANFIVCISAQQNSPKIHEGWWAYKEVVQGSFVPVPSFWGLVNSAWNLCSVGKRQSPVNIETSHMIFDPFLTPLRINTGGRKVSGTMYNTGRHVSLRLDKEHLVNISGGPMTYSHRLEEIRLHFGSEDSQGSEHLLNGQAFSGEVQLIHYNHELYTNVTEAAKSPNGLVVVSIFIKVSDSSNPFLNRMLNRDTITRITYKNDAYLLQGLNIEELYPETSSFITYDGSMTIPPCYETASWIIMNKPVYITRMQMHSLRLLSQNQPSQIFLSMSDNFRPVQPLNNRCIRTNINFSLQGKDCPNNRAQKLQYRVNEWLLK
modifications: left off: small tags and cut ends
notes: carbonic anhydrase 10, rodent ortholog, overexpressed (V5-tagged) protein
B2: CA10: human carbonic anhydrase 10, overexpressed (V5-tagged) protein; SEQ ID NO: 9 (protein)
chain: B1 chain
modifications: V5 tag

Tests used:
[1] = system: ITPR1-mediated cytoplasmic calcium release; test: ATP-induced cytoplasmic calcium release in HEK293 cells (Fura-2 imaging); type: cell-based, human; conditions: 1 μM ATP, overexpression vs empty vector
Experimental: Cell culture and transfections: Human neuronal-derived (e.g., NBL), human non-neuronal derived (e.g., HEK293) cells, or dispersed rodent primary DRG cells can be used. HEK293 cells (cat #CRL-1573 ATCC Manassas, VA) were cultured in Dulbecco's modified Eagle's medium (DMEM-Glutamax cat #0566; Invitrogen) supplemented with 10% fetal bovine serum, FBS (cat #16140 ThermoFisher scientific, Waltham, MA) and 1% penicillin/streptomycin (cat #15140 ThermoFisher scientific, Waltham, MA). Cells were seeded in six-well plates at density of 1.0×10^5 cells per well. The following day, cells were transfected with plasmids via lipofectamine LTX reagent and plus (cat #15338 ThermoFisher scientific, Waltham, MA). For each transfection 2 μg of AAV2-ITR (control), AAV2-V5-Car10, or AAV2-V5-CA10 vectors was used. In various embodiments of the disclosure described herein, 2 μg of expression vectors (including positive and negative controls) in instances when AAV2 is not the viral vector employed.
Pharmacodynamics—Bioassay of Calcium Release: Fifteen mm glass coverslips (cat #72228 Electron Microscopy Sciences, Hatfield, PA) were coated with poly-D-Lysine (Sigma) followed by Laminin and 1×10^5 cells were seeded on each coverslip. Twenty-four hrs later, cells were transfected with AAV2-ITR, AAV2-V5-Car10, or AAV2-V5-CA10 vectors as previously described. In embodiments wherein AAV2 is not employed, other expression vectors (including viral vectors) are used. Fura-2AM (cat #F1221 ThermoFisher scientific, Waltham, MA) was dissolved in DMSO (50 μg in 50 μl) and 1% pluronic acid-127 (cat #P2443 Sigma, St Louis, MO) as the stock solution. Forty eight hrs after seeding, cells were loaded with 2 μM Fura-2AM dye for 45 min at room temperature in the dark in a standard Ca+2 buffer solution containing: 125 mM NaCl, 2 mM MgCl, 4.5 mM KCl, 10 glucose, 20 mM HEPES, 2 mM CaCl2, pH 7.4.25. Following dye loading, coverslips were washed with Ca^+2 buffer solution. […] Regions of interest over the field of view were selected and the mean pixels intensity at each frame was measured. Data was plotted as ratio fluorescence intensity versus time and subsequently converted to a relative scale.
To further examine whether FLAG-CA8-204 (data not shown), V5-Car10 and V5-CA10 overexpression can inhibit ATP-induced calcium release, HEK293 cells were infected with each if these constructs and real-time intracellular calcium concentrations at baseline and in response to ATP stimulation were measured (FIG. 2). […]

ITPR1 = ITPR1 (Homo sapiens, UniProt Q14643); test: co-immunoprecipitation / western blot with ITPR1 and pITPR1; type: binding; parameters: before and after forskolin stimulation of HEK293 cells was conducted; endogenous in cells; host or cells: HEK293 (ATCC CRL-1573); conditions: HEK293 cells, before and after forskolin stimulation
Experimental: Immunoprecipitation: Fifty μl magnetic beads (Invitrogen) were incubated with 1 μg pITPR1 antibody for 45 minutes at 4° C. The supernatant was discarded and the beads were washed with binding buffer. Sample proteins of 200-400 μg were added and incubated with the beads for 4 hrs at 4° C. Then the protein complex was washed 3 times with washing buffer, and then eluted with SDS sample buffer. Samples were then heated at 70° C. for 10 min and then subjected to western blot analysis for Car10. The method described herein also is suitable for use in connection with Car8, CA8, CA8 fragment (CA8-204), CA10, Car11 and CA11.
Overexpression of V5-Car10 and V5-CA10 inhibits ATP-induced free calcium release in vitro: ITPR1 contains functionally distinct domains, including the ‘modulatory’ domain responding to intracellular modulators such as calcium, calmodulin, ATP, and carbonic anhydrase-8 (Car8). ATP increases ITPR1-dependent calcium release by increasing the open probability of the channel in the presence of activating concentrations of IP3 and calcium. It is believed that Car8-mediated inhibition of ITPR1 activation and ATP-mediated calcium release requires binding to this modulatory domain. Therefore, the ability of CA8 fragments (e.g., CA8-204), Car10 and CA10 to bind to ITPR1 and pITPR1 was examined. […]

Sequence of ITPR1 (Q14643 whole entry): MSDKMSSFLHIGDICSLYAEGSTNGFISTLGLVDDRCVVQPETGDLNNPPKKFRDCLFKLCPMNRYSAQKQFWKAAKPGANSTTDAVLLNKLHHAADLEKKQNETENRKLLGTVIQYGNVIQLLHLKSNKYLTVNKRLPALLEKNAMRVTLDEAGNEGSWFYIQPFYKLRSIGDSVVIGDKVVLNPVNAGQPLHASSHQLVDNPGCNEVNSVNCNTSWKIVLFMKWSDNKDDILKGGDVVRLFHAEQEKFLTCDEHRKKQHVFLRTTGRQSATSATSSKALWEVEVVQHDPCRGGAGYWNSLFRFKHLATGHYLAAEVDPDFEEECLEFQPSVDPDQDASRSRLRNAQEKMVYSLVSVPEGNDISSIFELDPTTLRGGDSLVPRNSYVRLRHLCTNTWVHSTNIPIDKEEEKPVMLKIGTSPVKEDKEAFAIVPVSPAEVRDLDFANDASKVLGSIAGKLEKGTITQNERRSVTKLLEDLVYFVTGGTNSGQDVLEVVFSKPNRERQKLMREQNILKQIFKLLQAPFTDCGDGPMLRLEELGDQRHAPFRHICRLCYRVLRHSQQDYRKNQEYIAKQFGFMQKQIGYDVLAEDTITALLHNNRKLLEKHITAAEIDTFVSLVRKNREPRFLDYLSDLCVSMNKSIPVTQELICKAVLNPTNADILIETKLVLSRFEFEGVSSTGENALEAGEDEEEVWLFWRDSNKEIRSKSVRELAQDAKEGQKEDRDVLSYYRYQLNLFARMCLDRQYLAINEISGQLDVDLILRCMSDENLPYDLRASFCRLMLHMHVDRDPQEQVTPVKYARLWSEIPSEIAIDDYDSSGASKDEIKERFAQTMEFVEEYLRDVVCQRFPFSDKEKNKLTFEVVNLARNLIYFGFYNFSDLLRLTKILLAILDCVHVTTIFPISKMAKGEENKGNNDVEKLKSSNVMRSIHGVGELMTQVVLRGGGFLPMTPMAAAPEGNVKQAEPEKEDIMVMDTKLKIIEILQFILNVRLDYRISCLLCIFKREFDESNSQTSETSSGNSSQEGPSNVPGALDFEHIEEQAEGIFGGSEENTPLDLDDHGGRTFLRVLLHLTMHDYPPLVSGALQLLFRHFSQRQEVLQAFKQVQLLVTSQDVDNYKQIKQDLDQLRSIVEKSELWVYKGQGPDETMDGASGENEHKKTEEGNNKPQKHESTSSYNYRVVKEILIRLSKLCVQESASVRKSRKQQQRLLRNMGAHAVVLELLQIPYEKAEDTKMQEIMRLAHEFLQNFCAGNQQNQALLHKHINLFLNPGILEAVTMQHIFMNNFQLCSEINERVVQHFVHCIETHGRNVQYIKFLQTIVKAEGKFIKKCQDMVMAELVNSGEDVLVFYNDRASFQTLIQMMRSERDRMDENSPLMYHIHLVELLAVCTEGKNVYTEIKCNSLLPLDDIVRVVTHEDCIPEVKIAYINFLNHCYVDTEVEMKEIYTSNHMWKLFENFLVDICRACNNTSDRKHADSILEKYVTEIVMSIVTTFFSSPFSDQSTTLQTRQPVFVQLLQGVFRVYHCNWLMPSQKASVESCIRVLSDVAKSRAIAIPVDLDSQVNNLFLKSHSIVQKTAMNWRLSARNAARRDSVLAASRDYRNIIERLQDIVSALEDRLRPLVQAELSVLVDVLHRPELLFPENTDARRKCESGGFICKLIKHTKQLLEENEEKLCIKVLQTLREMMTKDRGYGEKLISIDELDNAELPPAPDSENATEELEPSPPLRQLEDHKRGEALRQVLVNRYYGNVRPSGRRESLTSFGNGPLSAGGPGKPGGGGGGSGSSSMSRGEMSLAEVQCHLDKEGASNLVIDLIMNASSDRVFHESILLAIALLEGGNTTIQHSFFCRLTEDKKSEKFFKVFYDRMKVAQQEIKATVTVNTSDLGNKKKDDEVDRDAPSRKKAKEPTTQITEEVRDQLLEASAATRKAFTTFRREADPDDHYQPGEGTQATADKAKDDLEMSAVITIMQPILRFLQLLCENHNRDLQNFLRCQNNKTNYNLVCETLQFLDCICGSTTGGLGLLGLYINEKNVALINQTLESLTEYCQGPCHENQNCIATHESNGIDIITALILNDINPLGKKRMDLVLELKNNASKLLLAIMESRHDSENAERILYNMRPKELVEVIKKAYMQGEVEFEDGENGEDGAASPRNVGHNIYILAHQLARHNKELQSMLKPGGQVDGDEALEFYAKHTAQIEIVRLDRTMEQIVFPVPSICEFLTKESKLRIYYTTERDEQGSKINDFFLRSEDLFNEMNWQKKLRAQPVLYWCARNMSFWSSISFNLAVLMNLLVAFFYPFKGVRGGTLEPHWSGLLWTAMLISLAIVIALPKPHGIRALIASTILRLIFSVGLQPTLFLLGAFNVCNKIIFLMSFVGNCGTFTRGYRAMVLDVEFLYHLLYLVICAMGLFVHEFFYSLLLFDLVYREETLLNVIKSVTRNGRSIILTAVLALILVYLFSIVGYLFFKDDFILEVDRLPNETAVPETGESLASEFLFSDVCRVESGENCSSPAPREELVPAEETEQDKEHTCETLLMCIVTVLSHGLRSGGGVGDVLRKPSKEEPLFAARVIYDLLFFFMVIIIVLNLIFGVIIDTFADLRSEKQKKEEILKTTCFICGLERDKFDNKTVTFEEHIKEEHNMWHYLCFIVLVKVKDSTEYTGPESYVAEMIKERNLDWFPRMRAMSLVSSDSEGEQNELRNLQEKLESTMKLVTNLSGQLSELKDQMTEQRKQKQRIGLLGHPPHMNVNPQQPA

| Molecule | ATP-induced cytoplasmic calcium release (Fura-2 340/380 ratio) [1] | ATP-induced cytoplasmic calcium release (Fura-2 340/380 ratio) ([1]; listed as V5-Car10) | binding to ITPR1 (co-immunoprecipitation) (ITPR1) | ATP-induced cytoplasmic calcium release (Fura-2 340/380 ratio) ([1]; listed as V5-CA10) |
| --- | --- | --- | --- | --- |
| B1 | inhibits ITPR1-mediated cytoplasmic calcium release | inhibits ATP-induced cytoplasmic calcium release | do not bind to ITPR1 | – |
| B2 | inhibits ITPR1-mediated cytoplasmic calcium release | – | do not bind to ITPR1 | inhibits ATP-induced cytoplasmic calcium release |
